Assay results taken from patent publication US20190119407A1 (Amgen, published 2019).
Positions count from the first letter of the chain named.

T1: human TL1A (human, UniProt O95150 72-251, limits assumed)
T1 sequence (looked up): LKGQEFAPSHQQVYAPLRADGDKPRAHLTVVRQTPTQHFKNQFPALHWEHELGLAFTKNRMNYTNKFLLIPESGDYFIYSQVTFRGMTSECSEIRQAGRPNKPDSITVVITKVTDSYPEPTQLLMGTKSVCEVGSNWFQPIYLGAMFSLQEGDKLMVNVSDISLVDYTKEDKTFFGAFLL

T2: cynomolgus TL1A (cynomolgus monkey, UniProt G7PRK8 72-251)
T2 sequence: T1 sequence (looked up) with F39L, I78V

T3: human TL1A (human, UniProt O95150 72-251, limits assumed)
T3 construct: also called huTL1A; TNFSF15
T3 sequence (looked up): T1 sequence (looked up)

B1: anti-TL1A mAb 3C6 (antibody, human IgG1, kappa, N297G, V domains shown)
VH: QVQLVESGGGVVQPGRSLRLSCAASGFTFSSYGMHWVRQAPGKGLEWVAVISYDGNNKLYTDSVKGRFTISRDDSKSTLYLQMNSLRAEDTAVYYCARDPTVTLYYYYGMDVWGQGTTVTVSS
VL: DIQMTQSPSSLSASVGDRVTITCRTSQDIRDDLGWYQQKPGKAPKRLIYDASSLQSGVPSRFSGSGSGTEFTLTISSLQPEDFATYYCLQHNSYPPTFGQGTKVEIKR
notes: also called PL-39112; iPS 284112
B2: anti-TL1A mAb 9C8 (antibody, human IgG1, kappa, N297G, V domains shown)
VH: QVQLQESGPGLVKPSETLSLTCTVSGGSISSYFWSWIRQPPGKGLEWIGYIYYSGNTKYNPSLKSRVTISIDTSKNQFSLKLSSVTAADTAVYYCARETGSYYGFDYWGQGTLVTVSS
VL: DIQMTQSPSSLSASVGDRVTITCRASQSINNYLNWYQQRPGKAPKLLIYAASSLQSGVPSRFSGSGSGTDFTLTISSLQPGDFATYYCQQSYSTPRTFGQGTKLEIKR
notes: also called PL-39116; iPS 285412
B3: anti-TL1A mAb 2G11 (antibody, human IgG1, kappa, N297G, V domains shown)
VH: B2 VH with N56S, K58N, I69M, T99I, T112A
VL: B2 VL with R39K, K42I, A51T, T72S, G81E, Y87F, L104V
notes: also called iPS 285396
B4: anti-TL1A Fab 9C8 (Fab, V domains shown)
VH: B2 VH
VL: DIQMTQSPSSLSASVGDRVTITCRASQSINNYLNWYQQRPGKAPKLLIYAASSLQSGVPSRFSGSGSGTDFTLTISSLQPGDFATYYCQQSYSTPRTFGQGTKLEIK
notes: Fab fragment; the Fab's constant parts are not; also called 9C8 Fab; PL-39197
B5: anti-TL1A Fab 2G11 (Fab, V domains shown)
VH: B2 VH with N56S, K58N, I69M, T99I, T112A
VL: B4 VL with R39K, K42I, A51T, T72S, G81E, Y87F, L104V
notes: Fab fragment; the Fab's constant parts are not; also called 2G11 Fab; PL-38025
B6: anti-TL1A mAb 23B3 (antibody, human IgG1, kappa, N297G, V domains shown)
VH: QVQLQQSGPGLVKPSQTLSLTCVISGDSVSTNSVAWNWIRQSPSRGLEWLGRTYYRSKWYNDYAVSVKSRITINPDTSKNQFSLQLNSVTPEDTAVYYCAREDGDSYYRYGMDVWGQGTTVTVSS
VL: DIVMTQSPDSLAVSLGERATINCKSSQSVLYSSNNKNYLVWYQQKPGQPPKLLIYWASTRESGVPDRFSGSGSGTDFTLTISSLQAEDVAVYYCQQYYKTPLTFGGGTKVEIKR
notes: also called iPS 290043
B7: 88H9 (antibody, human IgG2, kappa, V domains shown)
VH: QVQLVESGAGVVQPGRSLRLSCAASGFTFSSYGMHWVRQAPGMGLEWVAVIWFDGSNEYYADSVKGRFTISRDNSKNTLYLQMNSLRAEDTAVYYCARERWFGELLDYWGQGTLVTVSS
VL: DIQMTQSPSSLSASVGDRVTITCRASQGIRNDLGWYQEKPGKAPKRLIYAASGLQGGDPSRFSGSGSGTEFTLTISSLQPEDFATYYCLQHNSYPTWTFGQGTKVEIKR
notes: also called iPS 427485
B8: 54E5 (antibody, human IgG2, kappa, V domains shown)
VH: QVQLVESGGGVVQPGRSLRLSCAASGFTFSTYGMHWVRQAPGKGLEWVAVIWYDGSNKDYADSVKGRFTVSRDNSRDTLYLQMNSLRAEDTAVYYCAREERDSYYHYGMDVWGQGTTVTVSS
VL: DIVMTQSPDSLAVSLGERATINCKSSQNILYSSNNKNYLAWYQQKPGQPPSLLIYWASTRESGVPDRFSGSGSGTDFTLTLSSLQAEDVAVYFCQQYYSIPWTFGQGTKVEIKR
notes: also called iPS 427576
B9: 56E1 (antibody, human IgG2, kappa, V domains shown)
VH: B8 VH with T28I, T31S
VL: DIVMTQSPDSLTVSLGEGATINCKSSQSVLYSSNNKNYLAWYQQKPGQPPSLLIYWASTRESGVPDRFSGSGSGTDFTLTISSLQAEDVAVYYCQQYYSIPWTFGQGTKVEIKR
notes: also called iPS 427554
B10: 60G11 (antibody, human IgG2, lambda, V domains shown)
VL: QSVLTQPPSVSGAPGQRVTISCTGSGSNIGAGYDVHWYQQLPGTAPKLLIYGNSHRPSGIPDRFSGSKSGTSASLAITGLQAEDEADYYCQSYDSSLSGYVFGTGTKVTVLG
V domain: EVQLLESGGGLVQPGGSLRLSCAASGFTFSNYAMNWVRQAPGKGLEWVSVISGRGGSTYYADSVKGRFTISRDNSRNTLYLQMNSLRAEDTAIYYCAKDGYSSAWFFDYWGQGTLITVSS
notes: also called iPS 427493
B11: 58G5 (antibody, human IgG2, lambda, V domains shown)
VH: B10 V domain with N35S, E46Q, R76K, I93V, F106Y, I116V
VL: B10 VL with G26S, I60V
notes: also called iPS 427539
B12: 53D3 (antibody, human IgG2, kappa, V domains shown)
VH: EVQLVESGGGLVKPGGSLRLSCAASEFTFSTYYMSWVRQAPGKGLEWVSSISSSSSFIYYADSVKGRFTISRDNAKNSLYLQMNSLRAEDTAVYYCARDRIAAPGTYYYYGMDVWGQGTTVTVSS
VL: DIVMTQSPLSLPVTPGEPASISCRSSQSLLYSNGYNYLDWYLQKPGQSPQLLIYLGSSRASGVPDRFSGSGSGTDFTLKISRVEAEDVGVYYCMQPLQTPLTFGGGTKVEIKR
notes: also called iPS 427504
B13: 92E5 (antibody, human IgG2, kappa, V domains shown)
VH: EVHLLESGGGLVQPGGSLRLSCAASGFTFSSYAMSWVRQVPGKGLEWVSGISGRGGSTYYADSVKGRFTISRDNSKNTLYLQMDSLRAEDTAVYNCAIEVAGAFDIWGQGTMVTVSS
VL: DIQMIQSPSSLSASVGDRVTITCRASQSISHYLNWYQQKPGKAPKFLIYAASSLQSGVPSRFSGSGSGTDFTLTISSLQPEDFATYYCQQSFSSITFGQGTRLEIKR
notes: also called iPS 427559
B14: 89H9 (antibody, human IgG2, kappa, V domains shown)
VH: B13 VH with V40A, R54G, D84N, D90N, N95Y, V100M
VL: B13 VL with R18S, H31Y, F92Y
notes: also called iPS 427509
B15: 91G8 (antibody, human IgG2, kappa, V domains shown)
VH: B13 VH with H3Q, A23V, V40A, R54S, T58R, D84N, N95Y
VL: B13 VL with H31S, S94T
notes: also called iPS 427524
B16: 91D7 (antibody, human IgG2, kappa, V domains shown)
VH: QVQLQQWGAGLLKPSETLSLTCAVYGGSFSGYYWSWIRQPPGKGLEWIGEINPVGRTNYKPSLKSRVTISVDTSKNQFSLKLSSVTAADTALYYCARDNGWHYAFDIWGQGTMVTVSS
VL: DIQMTQSPSSLSASVGDRVTITCRASQNISSYLNWYQQRPGKAPNLLLFTASSLQSGVPSRFSGSGSGTDFTLTINSLQPEDFATYYCQQSYSNPPESSFGQGTKLEIKR
notes: also called iPS 427514
B17: 57A8 (antibody, V domains shown)
VH: EIQLLESGGGLVQPGGSLRLSCVASGFTFSSYVMSWVRQAPGKGLEWVSVISGSGGSTYYADSVKGRFTISRDNSKTTLYLQMNSLRAEDTAVYYCAKGGTNYYYYYSGMDVWGQGTTVTVSS
VL: QSVLTQPPSVSGAPGQRVTISCTGSSSNIGAGYNVHWYQQLPGTAPKLLIYGNNNRPSGVPDRFSGSKSGTSASLAITGLQTEDEADYYCQSYDSSLSGWVFGGGTKLTVL
notes: also called iPS 427519
B18: 76A4 (antibody, human IgG2, kappa, V domains shown)
VH: QVQLQQSGPGLVKPSQTLSLTCAISGDSVSSNSATWNWIRQSPSRGLEWLGRTYYRSKLYNDYAVSVKSRITINPDTSKNQFSLQLNSVTPEDTAVYYCAREVVAGPRWFDPWGQGTLVTVSS
VL: B2 VL with I29V, N30T, N31S, R39K, A50T, V58I, G81E, Y87F, T97S
notes: also called iPS 427529
B19: 73C2 (antibody, human IgG2, kappa, V domains shown)
VH: B18 VH with N32S, Y55Q, L59W, Y60N, K79R
VL: B2 VL with I29F, N30S, N31S, R39K, K45E, G81E, T85S, Y87F, T97S
notes: also called iPS 427544
B20: 87H11 (antibody, human IgG2, kappa, V domains shown)
VH: B16 VH with V2E, P53H, V54S, K60N, L92V, N99S, Y103F, A104S, G109D
VL: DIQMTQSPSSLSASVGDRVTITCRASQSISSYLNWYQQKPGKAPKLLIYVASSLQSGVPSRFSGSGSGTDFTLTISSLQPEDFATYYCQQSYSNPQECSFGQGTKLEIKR
notes: also called iPS 427534
B21: 77D12 (antibody, human IgG2, lambda, V domains shown)
VH: QVQLVQSGAEVKKPGASVRVSCKASGYTFTGFYMHWVRQAPGQGLEWMGWINPDSGGTNYAQKFQGRVTMTRDTSISTAYMELSRLRSDDTAVYYCAREGIAVALTYWGQGTLVTVSS
VL: QSVLTQPPSASGTPGQRVTISCSESNSDIGTNAVNWYQQFPGTAPKFLIYSNNKRPSGVPDRFSGSKSGTSASLAISGLQSEDEADYYCATWDDNLNGPLFGGGTKLTVLG
notes: also called iPS 427549
B22: 92D3 (antibody, human IgG2, kappa, V domains shown)
VH: QVQLVQSGAEVKKPGASVQVSCKASGYTFTGYYMHWIRQAPGQGLEWLGWIIPNSGGTNYAQKFQGRVTMTRDTSISTAYMELSRLRSDDTAVYYCATGSSWEGFDYWGQGTLVTVSS
VL: DIQMTQSPSSLSASVGDRVTITCRASQSISSYLNWYQQKPGTAPKFLIYGASRLQSGVPSRFSGSGSGTDFTLTISSLQPEDFATYYCQQSDTTPITFGQGTRLEIKR
notes: also called iPS 427564
B23: 91F10_LC2 (antibody, human IgG2, kappa, V domains shown)
VH: B22 VH with V2G, Q19K, K23Q, G31A, I37V, L48M, I52N, Q65R, S100G
VL: B22 VL with T42K, G50A, T93S
notes: also called iPS 427572
B24: 23B3 VH3 (antibody, human IgG1, kappa, N297G, V domains shown)
VH: EVQLLESGGGLVQPGGSLRLSCAISGDSVSTNSVAWNWIRQAPGKGLEWVSRTYYRSKWYNDYAVSVKGRFTISPDTSKNTFYLQMNSLRAEDTAVYYCAREDGDSYYRYGMDVWGQGTTVTVSS
VL: DIQMTQSPSSLSASVGDRVTITCRSSQSVLYSSNNKNYLVWYQQKPGKVPKLLIYWASTRESGVPSRFSGSGSGTDFTLTISSLQPEDFATYYCQQYYKTPLTFGGGTKVEIKR
notes: also called 23B3 HC3; iPS 325336

molecular target: T1, human TL1A; assay: cell-based or functional assay

Binder	NF-kB IC50 nM, huTL1A (0.2 nM)
B1	0.153 nM
B2	0.131 nM
B3	0.223 nM
B4	2.43 nM
B5	0.551 nM
B6	0.089 nM

molecular target: T2, cynomolgus TL1A; assay: cell-based or functional assay

Binder	NF-kB IC50 nM, cyno TL1A (2 nM)
B1	> 100 nM
B6	0.619 nM

molecular target: T1, human TL1A; assay: SPR, Fab captured on anti-huFab chip, TL1A injected, 1:1 model
Protocol: (§1) On rate, off rate and equilibrium dissociation constant were calculated using 1:1 binding model on BIAevaluation software.

Binder	Kd
B4	< 0.1 nM
B5	< 0.3 nM

molecular target: T1, human TL1A; assay: SPR, mAb captured on anti-human Fc chip, TL1A injected, 1:1 model
Protocol: as §1

Binder	Kd	koff	kon
B1	< 0.1 nM	< 5e-05 s⁻¹	
B2	0.34 nM		
B3	1.1 nM		
B6	0.89 nM	0.00042 s⁻¹	470000 M⁻¹ s⁻¹

molecular target: T2, cynomolgus TL1A; assay: as above
Protocol: as §1

Binder	Kd	koff	kon
B1	2.4 nM	0.0014 s⁻¹	570000 M⁻¹ s⁻¹
B6	1.4 nM	0.00032 s⁻¹	230000 M⁻¹ s⁻¹

molecular target: T3, human TL1A; assay: hybridoma screening after immunisation with recombinant human TL1A soluble protein; member named through Tables A, C and D

Binder	binding result
B7	binds
B8	binds
B9	binds
B10	binds
B11	binds
B12	binds
B13	binds
B14	binds
B15	binds
B16	binds
B17	binds
B18	binds
B19	binds
B20	binds
B21	binds
B22	binds
B23	binds
B24	binds
